This note sets out measurements from patent US20230220381.

Data set [1] deals with T1, Thrombin (Homo sapiens) (UniProt P00734+P00734). The experiment in a line: FP.
Data set [2] addresses T1, Thrombin (Homo sapiens). The experiment in a line: MST. To be noted: Phe at library positions 5 and 3, C12 at position 4, Nap at position 1 (3' end) (unnatural monomers); 2Bind, N=2, 100 nM aptamer, buffer without Triton X; unit given as nmol.

In the data set with Thrombin (Homo sapiens) [1] (Nap unnatural monomer at library position 1 (3' end), unit given as nmol, Aptamer4/5 naming swapped in FIG. 12, Table 9 sequence used), “GGTTGGTGTGGTTGGNAP [Aptamer4 of Table 9 (Nap at position 1; Aptamer5 in FIG. 12)]” showed a Kd of 24 nM. “CGTCGAGGCCCGTGCTTACCCGTGACCTTCTTAGGAGGTTGGNGTGGNTGGTTTTTACACGTCACGCCTTTTTTTTT [TBA2F]” yielded a Kd in the data set with Thrombin (Homo sapiens) [1] (branched DNA-encoded construct with BU, aptamer branch GGTTGGC12GTGGAlkTGGTTTTT (C12 and Alk unnatural phosphodiester monomers), same buffer as TBA1F) of 89 nM. In the case of GGTTGGPHEGTGGTTGGT [Aptamer1], the Kd in the data set with Thrombin (Homo sapiens) [1] (Phe unnatural monomer at library position 5, fluorescence anisotropy, unit given as nmol) is 26 nM.

Consider GGGTGGPHECTGGPHETGGNAP [Aptamer3], for which the Kd amounted to 5 nM with Thrombin (Homo sapiens) [1] (Phe at library positions 5 and 3, C12 at position 4, Nap at position 1 (3' end) (unnatural monomers), fluorescence anisotropy with 0.1 mg/mL sheared salmon sperm DNA, N=3, unit given as nmol); 6 nM with Thrombin (Homo sapiens) [1] (Phe at library positions 5 and 3, C12 at position 4, Nap at position 1 (3' end) (unnatural monomers), fluorescence anisotropy, thrombin binding buffer, unit given as nmol); 20 nM with Thrombin (Homo sapiens) [2]. On to GGTPTGGPHECTGGTTGGG [Aptamer2], for which the Kd was determined as 10 nM with Thrombin (Homo sapiens) [1] (Trp at library position 7, Phe at position 5, C12 at position 4 (unnatural monomers), fluorescence anisotropy, unit given as nmol) and 10 nM with Thrombin (Homo sapiens) [1] (Trp at library position 7, Phe at position 5, C12 at position 4 (unnatural monomers), with 0.1 mg/mL salmon sperm DNA, N=3, unit given as nmol).
